# Reference: the supplement of paper PMC9112550, “Optimization of the antimicrobial peptide Bac7 by deep mutational scanning” (BMC Biology, 2022)
# System: Escherichia coli TOP10
# Assay: shrunken log2 fold change of peptide-encoding DNA abundance (4.5 h post-induction vs induction); higher = less antimicrobial activity (less host growth inhibition)
# Details: time post-induction: 4.5 h; library: site-saturation at positions 5, 18, 19, 20
# 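Note: peptides expressed intracellularly from a pBAD plasmid library in pooled LB shake-flask culture, induced with 0.3% L-arabinose, DNA abundance read by NGS, three biological replicates, DESeq2 with apeglm shrinkage.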
row,Sequence,shrunken log2 fold change
1,RRIRSRPPRLPRPRPRPDTCPRP,-0.225
2,RRIRARPPRLPRPRPRPQGKPRP,0.128
3,RRIRYRPPRLPRPRPRPSTLPRP,-0.853
4,RRIRWRPPRLPRPRPRPWDDPRP,-0.236
5,RRIRKRPPRLPRPRPRPPHKPRP,0.835
6,RRIRDRPPRLPRPRPRPRNVPRP,0.0903
7,RRIRHRPPRLPRPRPRPYFGPRP,-0.131
8,RRIRERPPRLPRPRPRPCLQPRP,-0.218
9,RRIRMRPPRLPRPRPRPHDMPRP,0.0059
10,RRIRRRPPRLPRPRPRPRQGPRP,0.298
11,RRIRQRPPRLPRPRPRPQPNPRP,0.26
12,RRIRMRPPRLPRPRPRPTPVPRP,1.14
13,RRIRWRPPRLPRPRPRPQYMPRP,-0.164
14,RRIRARPPRLPRPRPRPVWMPRP,0.0552
15,RRIRVRPPRLPRPRPRPEMPPRP,0.0341
16,RRIRFRPPRLPRPRPRPYKCPRP,-0.208
17,RRIRSRPPRLPRPRPRPACTPRP,0.28
18,RRIRRRPPRLPRPRPRPICNPRP,-0.12
19,RRIRHRPPRLPRPRPRPDKPPRP,-0.0375
20,RRIRWRPPRLPRPRPRPCWPPRP,0.427
21,RRIRGRPPRLPRPRPRPDKYPRP,-0.136
22,RRIRTRPPRLPRPRPRPERRPRP,0.0791
23,RRIRWRPPRLPRPRPRPNLGPRP,0.0106
24,RRIRQRPPRLPRPRPRPGYRPRP,-0.354
25,RRIRRRPPRLPRPRPRPRPKPRP,1.05

row,Sequence,shrunken log2 fold change
1,RRIRVRPPRLPRPRPRPMDWPRP,-0.138
2,RRIRPRPPRLPRPRPRPDSNPRP,-0.221
3,RRIRGRPPRLPRPRPRPNQMPRP,1.6
4,RRIRCRPPRLPRPRPRPNQRPRP,-0.093
5,RRIRKRPPRLPRPRPRPKPPPRP,0.76
6,RRIRNRPPRLPRPRPRPAQKPRP,0.918
7,RRIRGRPPRLPRPRPRPRHNPRP,0.0863
8,RRIRKRPPRLPRPRPRPLYNPRP,-0.263
9,RRIRKRPPRLPRPRPRPKDCPRP,-0.0519
10,RRIRDRPPRLPRPRPRPSVCPRP,0.294
11,RRIRTRPPRLPRPRPRPRSEPRP,0.116
12,RRIRRRPPRLPRPRPRPFAYPRP,-0.0942
13,RRIRERPPRLPRPRPRPFIHPRP,-1.12
14,RRIRDRPPRLPRPRPRPATVPRP,-0.0689
15,RRIRYRPPRLPRPRPRPNDNPRP,-0.635
16,RRIRFRPPRLPRPRPRPDVVPRP,-0.181
17,RRIRTRPPRLPRPRPRPNPKPRP,0.27
18,RRIRIRPPRLPRPRPRPIKVPRP,-0.398
19,RRIRSRPPRLPRPRPRPRGKPRP,0.0832
20,RRIRFRPPRLPRPRPRPLVCPRP,-0.365
21,RRIRVRPPRLPRPRPRPRLEPRP,0.138
22,RRIRHRPPRLPRPRPRPKQIPRP,-0.0133
23,RRIRFRPPRLPRPRPRPERDPRP,-0.0622
24,RRIRWRPPRLPRPRPRPTWSPRP,0.541
25,RRIRHRPPRLPRPRPRPRCGPRP,0.202

row,Sequence,shrunken log2 fold change
1,RRIRQRPPRLPRPRPRPVKWPRP,0.746
2,RRIRERPPRLPRPRPRPNFYPRP,-0.261
3,RRIRYRPPRLPRPRPRPVWSPRP,-0.337
4,RRIRKRPPRLPRPRPRPEEWPRP,-0.0212
5,RRIRHRPPRLPRPRPRPTMNPRP,-0.173
6,RRIRVRPPRLPRPRPRPNCHPRP,-0.201
7,RRIRCRPPRLPRPRPRPQKHPRP,-0.0816
8,RRIRTRPPRLPRPRPRPPRHPRP,0.152
9,RRIRSRPPRLPRPRPRPFIHPRP,-0.154
10,RRIRIRPPRLPRPRPRPCFWPRP,-0.22
11,RRIRNRPPRLPRPRPRPMNIPRP,-0.24
12,RRIRNRPPRLPRPRPRPETMPRP,-0.0713
13,RRIRVRPPRLPRPRPRPKTAPRP,0.0988
14,RRIRRRPPRLPRPRPRPYMFPRP,-0.448
15,RRIRSRPPRLPRPRPRPQATPRP,-0.107
16,RRIRSRPPRLPRPRPRPEYMPRP,-0.609
17,RRIRCRPPRLPRPRPRPRPQPRP,0.776
18,RRIRIRPPRLPRPRPRPYIKPRP,-0.684
19,RRIRRRPPRLPRPRPRPNTWPRP,0.0852
20,RRIRHRPPRLPRPRPRPSALPRP,-0.243
21,RRIRMRPPRLPRPRPRPAKYPRP,-0.111
22,RRIRKRPPRLPRPRPRPMKDPRP,0.618
23,RRIRKRPPRLPRPRPRPAKFPRP,0.602
24,RRIRMRPPRLPRPRPRPHAPPRP,0.469
25,RRIRCRPPRLPRPRPRPCWIPRP,-0.464

row,Sequence,shrunken log2 fold change
1,RRIRLRPPRLPRPRPRPCPHPRP,-0.0552
2,RRIRIRPPRLPRPRPRPLCGPRP,-0.319
3,RRIRMRPPRLPRPRPRPISWPRP,0.109
4,RRIRDRPPRLPRPRPRPRPRPRP,0.983
5,RRIRARPPRLPRPRPRPDDCPRP,0.167
6,RRIRWRPPRLPRPRPRPNWTPRP,0.0351
7,RRIRVRPPRLPRPRPRPTTCPRP,-0.0091
8,RRIRVRPPRLPRPRPRPQNEPRP,-0.303
9,RRIRARPPRLPRPRPRPYKMPRP,-0.821
10,RRIRARPPRLPRPRPRPFTEPRP,-0.261
11,RRIRPRPPRLPRPRPRPKMAPRP,-0.0597
12,RRIRIRPPRLPRPRPRPKAFPRP,-0.122
13,RRIRQRPPRLPRPRPRPQPCPRP,0.149
14,RRIRKRPPRLPRPRPRPARAPRP,0.739
15,RRIRVRPPRLPRPRPRPQPLPRP,-0.109
16,RRIRVRPPRLPRPRPRPARCPRP,0.205
17,RRIRMRPPRLPRPRPRPRDSPRP,0.117
18,RRIRWRPPRLPRPRPRPTNDPRP,0.0116
19,RRIRPRPPRLPRPRPRPFMDPRP,-0.248
20,RRIRMRPPRLPRPRPRPRSQPRP,0.108
21,RRIRGRPPRLPRPRPRPCQKPRP,0.0649
22,RRIRYRPPRLPRPRPRPFEDPRP,-0.057
23,RRIRERPPRLPRPRPRPCRPPRP,-0.00126
24,RRIRQRPPRLPRPRPRPASSPRP,-0.196
25,RRIRTRPPRLPRPRPRPDSIPRP,-0.0295

row,Sequence,shrunken log2 fold change
1,RRIRQRPPRLPRPRPRPTPRPRP,0.843
2,RRIRSRPPRLPRPRPRPFPAPRP,0.0186
3,RRIRTRPPRLPRPRPRPTKTPRP,0.0558
4,RRIRLRPPRLPRPRPRPANVPRP,-0.304
5,RRIRCRPPRLPRPRPRPEYGPRP,-0.167
6,RRIRCRPPRLPRPRPRPYKKPRP,0.104
7,RRIRHRPPRLPRPRPRPEQPPRP,-0.0288
8,RRIRERPPRLPRPRPRPAAMPRP,0.102
9,RRIRMRPPRLPRPRPRPKNTPRP,0.575
10,RRIRVRPPRLPRPRPRPIAMPRP,-0.0565
11,RRIRWRPPRLPRPRPRPYVWPRP,-0.0228
12,RRIRSRPPRLPRPRPRPWPAPRP,0.199
13,RRIRKRPPRLPRPRPRPVPRPRP,0.72
14,RRIRPRPPRLPRPRPRPHHNPRP,-0.859
15,RRIRSRPPRLPRPRPRPMKAPRP,-0.00133
16,RRIRSRPPRLPRPRPRPVKQPRP,0.0733
17,RRIRERPPRLPRPRPRPHHHPRP,-0.58
18,RRIRARPPRLPRPRPRPAKYPRP,-0.156
19,RRIRMRPPRLPRPRPRPSNRPRP,-0.0397
20,RRIRKRPPRLPRPRPRPNRYPRP,0.0446
21,RRIRGRPPRLPRPRPRPFPKPRP,0.0687
22,RRIRCRPPRLPRPRPRPEYFPRP,-0.0582
23,RRIRHRPPRLPRPRPRPYQKPRP,-0.01
24,RRIRRRPPRLPRPRPRPIMSPRP,-0.0839
25,RRIRNRPPRLPRPRPRPSHVPRP,-0.0765

row,Sequence,shrunken log2 fold change
1,RRIRSRPPRLPRPRPRPRNHPRP,-0.0799
2,RRIRLRPPRLPRPRPRPYGAPRP,-0.0327
3,RRIRGRPPRLPRPRPRPREGPRP,1.42
4,RRIRIRPPRLPRPRPRPDRPPRP,-0.0549
5,RRIRWRPPRLPRPRPRPWKFPRP,0.0588
6,RRIRERPPRLPRPRPRPTGCPRP,0.155
7,RRIRFRPPRLPRPRPRPFHLPRP,-0.391
8,RRIRGRPPRLPRPRPRPHSVPRP,-0.0536
9,RRIRVRPPRLPRPRPRPMQSPRP,0.292
10,RRIRKRPPRLPRPRPRPFCFPRP,1.24
11,RRIRKRPPRLPRPRPRPLQWPRP,0.0701
12,RRIRGRPPRLPRPRPRPEQEPRP,0.0952
13,RRIRVRPPRLPRPRPRPQDEPRP,-0.114
14,RRIRWRPPRLPRPRPRPSLPPRP,-0.133
15,RRIRCRPPRLPRPRPRPQHGPRP,-0.211
16,RRIRFRPPRLPRPRPRPQYMPRP,-1.77
17,RRIRCRPPRLPRPRPRPIQVPRP,-0.191
18,RRIRSRPPRLPRPRPRPEAFPRP,-0.0131
19,RRIRHRPPRLPRPRPRPHMDPRP,-0.162
20,RRIRVRPPRLPRPRPRPYLKPRP,-0.0795
21,RRIRMRPPRLPRPRPRPNVWPRP,0.303
22,RRIRIRPPRLPRPRPRPDKDPRP,-0.0993
23,RRIRRRPPRLPRPRPRPRFCPRP,0.421
24,RRIRMRPPRLPRPRPRPYSTPRP,-0.137
25,RRIRPRPPRLPRPRPRPHWFPRP,0.0501
